Residue numbers refer to the chain shown, from its start.
T1: Human B7-H4 with HisFlag tag (huB7-H4-his) (human, UniProt Q7Z7D3 25-258)
T1 construct: also called HuB7-H4 His protein; huB7-H4-HF
T1 sequence: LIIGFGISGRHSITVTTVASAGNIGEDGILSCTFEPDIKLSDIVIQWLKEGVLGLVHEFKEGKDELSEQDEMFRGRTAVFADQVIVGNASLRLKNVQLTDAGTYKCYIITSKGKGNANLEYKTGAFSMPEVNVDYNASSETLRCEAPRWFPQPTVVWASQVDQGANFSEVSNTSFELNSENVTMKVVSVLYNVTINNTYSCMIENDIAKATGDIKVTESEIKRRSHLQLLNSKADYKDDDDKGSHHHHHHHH

B1: murine mAb 2A10 (antibody, V domains shown)
VH: EVQLVESGGGFVKPGGSLKLSCAASGFTFSTFGMSWVRQTPDKRLEWVAGISPGGSYTYYPDTVKGRFTISRDNARNTLYLQMSSLRSEDSAMYYCTRGRSVWGTGTTVTVSS
VL: DILMTQSPSSMSVSLGDTVSITCHASQDISSNIGWLQQKPGKSFKGLIYHGTTLEDGIPSRFSGSGSGADYSLTISSLESEDFADYYCVQSAQFPWTFGGGTKLEIK
notes: Murine antibody from hybridoma
B2: murine mAb 1E4 (antibody, V domains shown)
VH: EVQLVESGGGLVKPGGSLKLSCAASGFTFSRYAMSWVRQTPEKRLEWVAGISSGGSYTYYPDTLKGRFTVSRDNARNTLYLQMSSLRSEDTAKYFCASQGSNHYFDYWGQGTTLTVSS
VL: B1 VL with I2T, D28G, S30H, S31N, G46A, T53N, I58V, T74I, S91Y, W96Y
notes: as for B1
B3: murine mAb 2F4 (antibody, V domains shown)
VH: EVQLVESGGGLVKPGGSLKLSCAASGLTFSRYAMSWVRQTPEKRLEWVAGISSGGSYTYYSDTVKGRFTISRDNVRNTLYLQMSSLRSEDTAMYYCGREYGRDYWGQGTSVTVSS
VL: B1 VL with D28G, S30N, T53N, I58V, A69T, S91Y, W96R, K103T
notes: as for B1
B4: murine mAb 2G6 (antibody, V domains shown)
VH: EVQLVESGGGLVKPGGSLKLSCAASGFTFSRYGMSWVRQTPEKRLEWVAGINGGGSYTYYLDTVKGRFTISRDNSRNTLYLQMSSLRSEDTAMYYCVSQGSNYYFDYWGQGTTLTVSS
VL: B1 VL with L3R, D28G, G46A, T53N, I58V, S91Y, W96Y
notes: as for B1
B5: murine mAb 2F7 (antibody, V domains shown)
VH: EVQLVESGGGLVQPGGSLKLSCAASGFTFSNYYMSWVRQTPEKRLEWVAYVSSGGGSTYYSDSVKGRFTISRDNAKNTLYLQMSSLKPEDTAMYYCTRESYSQGNYFDYWGQGTTLTVSS
VL: DIVMTQSPATLSVTPGDRVSLSCRASQSISDYLHWYQQKSHESPRLLIKFASQSISGIPSRFSGSGSGSDFTLSINSVEPEDVGVYYCQNGHSFSLTFGAGTKLELK
notes: as for B1
B6: murine mAb 2F8 (antibody, V domains shown)
VH: QVQLQQPGSVLVRPGASVKLSCKASGYTFTNSWMNWAKLRPGQGLEWIGGIYPNSGNIEYNEKFKGKATLTVDTSSSTAYMDLTSLTSEDSAVYYCARDSRFSYWGQGTLVTVSA
VL: DIVMTQSHKFMSTSVGDRVSITCKASQDVRTAVAWYQQKPGQSPKLLISSTSYRYTGVPDRFTGSGSGTDFTFIISSVQAEDLAVYYCQQHYSTPLTFGAGTKLELK
notes: as for B1
B7: murine mAb 2E4 (antibody, V domains shown)
VH: QVQLQQPGSVLVRPGTSVKLSCKASGYTFTSSWMNWVKQRPGQGLEWIGGIYPNRGTTEYNEKFKGKATLTVDTSSSTAFMDLNRLTSEDSAVYYCARDSRFADWGQGTLVTVSA
VL: B6 VL with V3M, M4L, R30S, T31A, T51A, I74T, S93N
notes: as for B1
B8: M1 (listed as murine antibody) (antibody, V domains shown)
VH: EIQLQQSGPELVMPGASVKVSCTASGYPFTTYNMYWVKQSHGKSLEWIAYIDPYNGGTSYNQKFKGKATLTVDKSSSTAYMHLNSLTSEDSAVYYCARSGFYDGYYAWYFDVWGAGTTVTVSS
VL: DVVMTQTPLSLPVSLGDQASISCRSSQSLVHSGGNTYLHWYLQKPGQSPKLLIYKVSNRFSGVPDRFSGSGSGTDFTLKISRVEAEDLGVYFCSQSTHVPLTFGAGTKLELK
B9: chimeric antibody 2A10 (antibody, human IgG1, V domains shown)
VH: B1 VH
VL: B1 VL
B10: chimeric antibody 2F4 (antibody, human IgG1, V domains shown)
VH: B3 VH
VL: B1 VL with D28G, S30N, T53N, I58V, A69T, S91Y, W96R, K103T
notes: also called ch-2F4
B11: chimeric antibody 2G6 (antibody, human IgG1, V domains shown)
VH: B4 VH
VL: B1 VL with L3R, D28G, G46A, T53N, I58V, S91Y, W96Y
B12: chimeric antibody 2F7 (antibody, human IgG1, V domains shown)
VH: B5 VH
VL: B5 VL
notes: also called ch-2F7
B13: chimeric antibody 2F8 (antibody, human IgG1, V domains shown)
VH: B6 VH
VL: B6 VL
notes: also called ch-2F8
B14: chimeric antibody 1C9 (antibody, human IgG1, V domains shown)
VH: B6 VH with Y27D, N31T, S32Y, A37V, L39Q, P53L, N57S, I58S, T71S, T84S
VL: B6 VL with M11L, R30S, K45E, T51A, I74T, S93N, K103Q
B15: chimeric antibody M1 (antibody, V domains shown)
VH: B8 VH
VL: B8 VL
notes: also called ch-M1

molecular target: T1, Human B7-H4 with HisFlag tag …; assay: SPR Biacore T200, antibody coupled to CM5 chip, 50 nM huB7-H4-his in flow, 1:1 model
Protocol: (§1) a). 50 nM human huB7-H4-his protein (Sino Biological #10738-H08H) diluted by the same buffer was loaded at a flow rate of 10 μL/min, and the chip was regenerated with the regeneration reagent provided in the kit. Antigen-antibody binding kinetics were recorded for 3 minutes and dissociation kinetics were recorded for 10 minutes. The resulting data were analyzed by GE's BIAevaluation Software using 1:1 (Langmuir) binding model.

| koff [s⁻¹] | Binder |
| --- | --- |
| 0.000331 | B1 |
| 0.000293 | B2 |
| 0.00166 | B3 |
| 8.91e-05 | B4 |
| 0.00253 | B5 |
| 6.87e-05 | B6 |
| 5.97e-05 | B7 |
| 3.98e-05 | B8 |

molecular target: T1, Human B7-H4 with HisFlag tag …; assay: indirect ELISA, plate coated with HuB7-H4 His
Protocol: The plate was washed with PBST (PBS comprising 0.05% Tween-20, pH 7.4) four times, and then 150 μl/well of 3% bovine serum albumin (BSA) blocking solution diluted in PBST was added, and incubated at room temperature for 1 hour for blocking. After the blocking was finished, the blocking solution was discarded and the plate was washed 4 times with PBST buffer.
The antibodies to be tested were diluted with PBST comprising 3% BSA at a gradient of 10-fold dilution, starting from 1 μM with a total of 10 doses. The dilutions were added into the plate at 100 μl/well, and incubated at room temperature for 1 hour. After the incubation was finished, the plate was washed 4 times with PBST, 100 μl/well of HRP-labeled goat anti-human secondary antibody (Abeam, cat #ab97225) diluted in PBST comprising 3% BSA was added and incubated at room temperature for 1 hour. The plate was washed 4 times with PBST, 100 μl/well TMB chromogenic substrate (Cell Signaling Technology, cat #7004S) was added and incubated at room temperature in darkness for 1 minute, and 100 μl/well of Stop Solution (Cell Signaling Technology, cat #7002S) was added to terminate the reaction. The absorbance was read at 450 nm using a microplate reader (BioTek, model Synergy H1), and the data was analyzed.

| EC50 [nM] | Binder |
| --- | --- |
| 0.071 | B9 |
| 0.056 | B10 |
| 0.081 | B11 |
| 0.17 | B12 |
| 0.067 | B13 |
| 0.068 | B14 |
| 0.063 | B15 |

molecular target: T1, Human B7-H4 with HisFlag tag …; assay: SPR Biacore T200, antibody coupled to CM5 chip, series of huB7-H4-his concentrations, 1:1 model
Protocol: as §1, with “b). A series of concentrations of human” for “a). 50 nM human”, “protein” for “protein (Sino Biological #10738-H08H)”, “buffer were respectively” for “buffer was”, “at the” for “at a”, “10 μL/min” for “10 μL/min,”

| Kd [nM] | koff [s⁻¹] | kon [M⁻¹ s⁻¹] | Binder |
| --- | --- | --- | --- |
| 2.5 | 0.00259 | 1.04e+06 | B10 |
| 68.8 | 0.00304 | 44200 | B12 |
| 0.119 | 0.000114 | 1.13e+06 | B13 |
| 0.14 | 9.41e-05 | 674000 | B15 |

From patent US20210032347A1 (JIANGSU HANSOH PHARMACEUTICAL GROUP, published 2021)
